Test results: publication PMC10654033

Target: SpnA (S. pyogenes nuclease A), recombinant, residues Val25 to Leu876 (S. pyogenes) (UniProt Q9A0J7)
Assay: SPR; Biacore T100; SpnA immobilized on a CM5 chip by amino coupling (7247 resonance units); IdeS injected at 10, 20, 40, 80 and 160 μM, 10 μl/min; 100 mM Hepes, 150 mM NaCl, 0.05% surfactant P20, pH 7.4; 1:1 Langmuir binding model

IdeS (immunoglobulin G-degrading enzyme of Streptococcus pyogenes) (from UniProt Q7DAM2 1-339)
Kd: 53.3 µM
